Ends that are not written are not given here.
Experiments:
[1] = target: amylin receptors (membrane-bound amylin receptors)
[2] = target: amylin receptors (membrane-bound amylin receptors); test: receptor binding assay: competition with 125I Bolton Hunter rat amylin for membrane-bound amylin receptors
food intake in mice = test: food intake in food-deprived mice after intraperitoneal injection; format: in vivo
Experimental: Male NIH/Swiss Webster (Hsd:NIHS) mice, 8-10 weeks of age, were obtained from Harlan Sprague Dawley, Madison, Wis. Animals were exposed to 12:12 hour light-dark cycle, with lights off at 18:00, and with room temperature between 22° and 25° C. Water and food (Teklan 7002, Harlan Teklad, Madison, Wis.) were available ad libitum except as indicated below. Animals were adapted to the vivarium environment for at least one week before experiments were carried out.
Rat amylin (AC128) was synthesized by Fmoc solid phase synthesis. […] Peptides were dissolved in sterile water to obtain stock solutions of 1 mg/ml. Further dilutions were made with sterile saline just prior to intraperitoneal injections.
Animals were individually housed and deprived of food for 18-20 hours before experiments. Animals were allowed ad libitum access to water before and during the experiments. Immediately after intraperitoneal injection of rat amylin or CCK-8 or saline, all animals received a pre-weighed pellet of food. Food intake for each animal was measured by weighing the food pellet at 30 minutes following injection and providing food.

[3] = solubility and stability characteristics compared to human amylin; format: physicochemical
[4] = tested on: insulin-stimulated glycogen synthesis in soleus muscle; settings: cited from earlier work
food intake in rats = settings: IP, 0.5 μg/kg; cited from earlier work

Molecule	Soleus Muscle (EC50, nM) [1] [nM]	IC50 [2] [nM]	further results
CSCC[C@H](NC(=O)[C@H](Cc1ccc(OS(=O)(=O)O)cc1)NC(=O)[C@@H](N)CC(=O)O)C(=O)NCC(=O)N[C@@H](Cc1c[nH]c2ccccc12)C(=O)N[C@@H](CCSC)C(=O)N[C@@H](CC(=O)O)C(=O)N[C@@H](Cc1ccccc1)C(N)=O [CCK-8, Asp-Tyr(SO3 H)-Met-Gly-Trp-Met-Asp-Phe-NH2]			effect on food intake (food intake in mice; IP injection of 1.0 μg/kg, peptide alone): no measurable effect; suppressed food intake (food intake in mice; mice, intraperitoneal, 1.0 μg/kg of each peptide, at 30 minutes): 10.6±16.9%
CC[C@H](C)[C@H](NC(=O)[C@@H]1CCCN1C(=O)CNC(=O)[C@H](Cc1ccccc1)NC(=O)[C@H](CC(N)=O)NC(=O)[C@H](CC(N)=O)NC(=O)[C@H](CO)NC(=O)[C@H](CO)NC(=O)[C@H](Cc1c[nH]cn1)NC(=O)[C@@H](NC(=O)[C@H](CC(C)C)NC(=O)[C@H](Cc1ccccc1)NC(=O)[C@H](CC(N)=O)NC(=O)[C@H](C)NC(=O)[C@H](CC(C)C)NC(=O)[C@H](CCCNC(=N)N)NC(=O)[C@H](CCC(N)=O)NC(=O)[C@@H](NC(=O)[C@H](C)NC(=O)[C@@H]1CSSC[C@H](NC(=O)[C@@H](N)CCCCN)C(=O)N[C@@H](CC(N)=O)C(=O)N[C@@H]([C@@H](C)O)C(=O)N[C@@H](C)C(=O)N[C@@H]([C@@H](C)O)C(=O)N1)[C@@H](C)O)C(C)C)C(=O)N[C@@H](CC(C)C)C(=O)N1CCC[C@H]1C(=O)N1CCC[C@H]1C(=O)N[C@H](C(=O)N[C@@H](CC(N)=O)C(=O)N[C@H](C(=O)NCC(=O)N[C@@H](CO)C(=O)N[C@@H](CC(N)=O)C(=O)N[C@H](C(=O)N[C@@H](Cc1ccc(O)cc1)C(N)=O)[C@@H](C)O)C(C)C)[C@@H](C)O [^25,28,29 Pro-h-amylin]			solubility characteristics [3]: more desirable; stability characteristics [3]: more desirable
Chicken calcitonin: ultimobranchial calcitonin closely related to fish calcitonins (CASLSTCVLGKLSQELHKLQTYPRTDVGAGTP; ends and bridges not checked; cysteine pairing not given here)			EC50 [4]: 0.7 nM
Eel calcitonin (from UniProt P01262) (ligand)	0.4	0.09	
Eel calcitonin: calcitonin from fish (eel), ultimobranchial calcitonin (CSNLSTCVLGKLSQELHKLQTYPRTDVGAGTP; ends and bridges not checked; cysteine pairing not given here)			EC50 [4]: 0.4 nM
Human amylin (from UniProt P10997) (ligand)	1.6	0.05	
Salmon calcitonin: calcitonin from fish (salmon), ultimobranchial calcitonin, amylin agonist			EC50 [4]: 0.4 nM
amylin: amylin of unstated species in a literature report (KCNTATCATQRLANFLVHSSNNFGAILSSTNVGSNTY; Islet amyloid polypeptide; UniProt P10997 34-70, looked up)			effect on food intake (food intake in rats): significantly decreased food intake

Second part, led by results:

Soleus Muscle (EC50, nM) [1] [nM]	IC50 [2] [nM]	Molecule	further results
0.3	0.05	1.7-Asn-eel Calcitonin (from UniProt P01262) (peptide)	
0.7	0.03	Chicken calcitonin (from UniProt P07660) (ligand)	
0.4	0.07	Salmon calcitonin (from UniProt P01263) (ligand)	
